Test results: publication PMC11203824

T1: EGFP-Arc (EGFP tag at the N-terminus), expressed in U2OS cells (mouse), Q9WV31
T1 chain: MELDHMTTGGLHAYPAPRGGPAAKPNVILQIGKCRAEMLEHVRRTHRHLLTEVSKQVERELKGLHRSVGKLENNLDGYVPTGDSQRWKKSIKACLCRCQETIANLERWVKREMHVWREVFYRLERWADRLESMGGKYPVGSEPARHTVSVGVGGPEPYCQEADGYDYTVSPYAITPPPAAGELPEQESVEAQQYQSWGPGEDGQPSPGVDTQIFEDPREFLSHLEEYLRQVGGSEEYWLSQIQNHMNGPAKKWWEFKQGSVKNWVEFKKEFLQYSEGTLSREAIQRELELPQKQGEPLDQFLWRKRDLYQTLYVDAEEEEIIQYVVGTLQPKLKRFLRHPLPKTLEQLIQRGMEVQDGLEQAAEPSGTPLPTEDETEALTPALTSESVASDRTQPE

T2: Arc-EGFP (EGFP tag at the C-terminus), expressed in U2OS cells (mouse), Q9WV31
T2 chain: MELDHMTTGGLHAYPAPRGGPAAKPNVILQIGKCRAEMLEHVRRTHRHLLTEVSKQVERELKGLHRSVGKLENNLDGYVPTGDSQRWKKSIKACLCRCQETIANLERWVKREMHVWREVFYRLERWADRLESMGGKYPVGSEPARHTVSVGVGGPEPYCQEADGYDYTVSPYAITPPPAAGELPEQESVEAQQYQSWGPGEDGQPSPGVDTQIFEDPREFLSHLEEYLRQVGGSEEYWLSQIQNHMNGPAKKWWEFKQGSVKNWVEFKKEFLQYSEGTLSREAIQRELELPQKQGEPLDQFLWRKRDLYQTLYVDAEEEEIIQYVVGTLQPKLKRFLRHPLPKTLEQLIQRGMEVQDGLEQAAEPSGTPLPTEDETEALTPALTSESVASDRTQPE


Assays:
[1] = molecular target: T1, EGFP-Arc (EGFP tag at the N-terminus), …; assay: fluorescence fluctuation spectroscopy (brightness analysis); single-point FFS in the cytoplasm of living U2OS cells, ~200 nM to ~5 µM EGFP-tagged Arc; normalized brightness b against EGFP alone gives the average stoichiometry; conditions: remark: other sources report otherwise
[2] = molecular target: T2, Arc-EGFP (EGFP tag at the C-terminus), …; assay: as above; conditions: remark: other sources report otherwise

Row | stoichiometry N (Arc molecules per particle) [1] | stoichiometry N (Arc molecules per particle) [2] | Binder
1 | 1 to 3 |  | EGFP-Arc (EGFP tag at the N-terminus), expressed in U2OS cells, Q9WV31 1-396 (natural protein) MELDHMTTGGLHAYPAPRGGPAAKPNVILQIGKCRAEMLEHVRRTHRHLLTEVSKQVERELKGLHRSVGKLENNLDGYVPTGDSQRWKKSIKACLCRCQETIANLERWVKREMHVWREVFYRLERWADRLESMGGKYPVGSEPARHTVSVGVGGPEPYCQEADGYDYTVSPYAITPPPAAGELPEQESVEAQQYQSWGPGEDGQPSPGVDTQIFEDPREFLSHLEEYLRQVGGSEEYWLSQIQNHMNGPAKKWWEFKQGSVKNWVEFKKEFLQYSEGTLSREAIQRELELPQKQGEPLDQFLWRKRDLYQTLYVDAEEEEIIQYVVGTLQPKLKRFLRHPLPKTLEQLIQRGMEVQDGLEQAAEPSGTPLPTEDETEALTPALTSESVASDRTQPE
2 |  | 1 to 3 | Arc-EGFP (EGFP tag at the C-terminus), expressed in U2OS cells, Q9WV31 1-396 (natural protein) MELDHMTTGGLHAYPAPRGGPAAKPNVILQIGKCRAEMLEHVRRTHRHLLTEVSKQVERELKGLHRSVGKLENNLDGYVPTGDSQRWKKSIKACLCRCQETIANLERWVKREMHVWREVFYRLERWADRLESMGGKYPVGSEPARHTVSVGVGGPEPYCQEADGYDYTVSPYAITPPPAAGELPEQESVEAQQYQSWGPGEDGQPSPGVDTQIFEDPREFLSHLEEYLRQVGGSEEYWLSQIQNHMNGPAKKWWEFKQGSVKNWVEFKKEFLQYSEGTLSREAIQRELELPQKQGEPLDQFLWRKRDLYQTLYVDAEEEEIIQYVVGTLQPKLKRFLRHPLPKTLEQLIQRGMEVQDGLEQAAEPSGTPLPTEDETEALTPALTSESVASDRTQPE
